Consider 19 molecules from patent US20250171562A1.

B1: sdAb D1 (VHH)
VHH: DVQLQESGGGLVQAGGSLRLSCAASGLTFSRCDMGWFRQAPGKEREFVARISANGASTHYADFVKGRFTISRDNAKNTVYLQMNYLKPEDTAVYICAAARVPVTWQLYDYWGQGTQVTVS
B2: sdAb E1 (VHH)
VHH: DVQLQESGGGLVQAGGSLRLSCLASGRTFTTTSGYNMGWFRQAPGKEREFVAGIKWVSGSNRAYAESVKGRFTISRDNAKNTVYLQMNSLKPEDTAVYYCAAATGQSYVPIREYEYVYWGQGTQVTVS
B3: sdAb F3 (VHH)
VHH: DVQLQESGGGLVQAGGSLKLSCAASRGSLSRWDVAWFRQAPGKERSFVTRISWSGTTSYYADAVKGRFAISRDNAKNTVYLQMNSLKPEDTAVYYCAVALYGNRGYYDVNAHSYWGQGTQVTVS
B4: B1A1(G4S)4 (bispecific antibody)
chain: QVQLQESGGGLVQTGGSLRLSCAVHGRTFSNTGMGWFRQAPGNERQFVAIISPSGTSTYYADSVKGRFTISRDPAKNTVYLQMNSLKMDDTAVYYCAASYGSNWSTLRHQRRNEYDAWGQGTQVAVSGGGGSGGGGSGGGGSGGGGSEVQLLESGGGLVQPGGSLRLSCAASGFTFGNYDMAWVRQAPGKRPEWVSSIDTGGDITHYADSVKGRFTISRDNAKNTLYLQMNSLRPEDTAVYWCATDEEYALGPNEFDYYGQGTLVTVS
B5: D2A1(G4S)4 (bispecific antibody)
chain: DVQLQESGGGLVEAGGSLRLSCVASGRTFSGWSMGWFRQAPGKEREFVAAISWVGSWIGGTVYSNSVKGRFTISRDNARTTVYLQMNSLKPEDTAVYFCAAANSETPRIFASEYDYWGQGTQVTVSGGGGSGGGGSGGGGSGGGGSEVQLLESGGGLVQPGGSLRLSCAASGFTFGNYDMAWVRQAPGKRPEWVSSIDTGGDITHYADSVKGRFTISRDNAKNTLYLQMNSLRPEDTAVYWCATDEEYALGPNEFDYYGQGTLVTVS
B6: A1A1(G4S)4 (VHH)
chain: EVQLLESGGGLVQPGGSLRLSCAASGFTFGNYDMAWVRQAPGKRPEWVSSIDTGGDITHYADSVKGRFTISRDNAKNTLYLQMNSLRPEDTAVYWCATDEEYALGPNEFDYYGQGTLVTVSGGGGSGGGGSGGGGSGGGGSEVQLLESGGGLVQPGGSLRLSCAASGFTFGNYDMAWVRQAPGKRPEWVSSIDTGGDITHYADSVKGRFTISRDNAKNTLYLQMNSLRPEDTAVYWCATDEEYALGPNEFDYYGQGTLVTVS
B7: A1D2(G4S)4 (bispecific antibody)
chain: EVQLLESGGGLVQPGGSLRLSCAASGFTFGNYDMAWVRQAPGKRPEWVSSIDTGGDITHYADSVKGRFTISRDNAKNTLYLQMNSLRPEDTAVYWCATDEEYALGPNEFDYYGQGTLVTVSGGGGSGGGGSGGGGSGGGGSDVQLQESGGGLVEAGGSLRLSCVASGRTFSGWSMGWFRQAPGKEREFVAAISWVGSWIGGTVYSNSVKGRFTISRDNARTTVYLQMNSLKPEDTAVYFCAAANSETPRIFASEYDYWGQGTQVTVS
B8: B3A1(G4S)4 (bispecific antibody)
chain: DVQLQESGGGLVQAGGSLRLSCAASGFIFRLAGMSWVRQAPGKGFEWVSGITMDGSTTNYADSVKGRFTISRDNSKNRLYLQMNSLKPEDTAVYYCARGAKGGYNDPRGQGTQVTVSGGGGSGGGGSGGGGSGGGGSEVQLLESGGGLVQPGGSLRLSCAASGFTFGNYDMAWVRQAPGKRPEWVSSIDTGGDITHYADSVKGRFTISRDNAKNTLYLQMNSLRPEDTAVYWCATDEEYALGPNEFDYYGQGTLVTVS
B9: A1B2(G4S)4 (bispecific antibody)
chain: EVQLLESGGGLVQPGGSLRLSCAASGFTFGNYDMAWVRQAPGKRPEWVSSIDTGGDITHYADSVKGRFTISRDNAKNTLYLQMNSLRPEDTAVYWCATDEEYALGPNEFDYYGQGTLVTVSGGGGSGGGGSGGGGSGGGGSQVQLVESGGGLVQAGGSLRLSCAVFGSTFSNNVADWYRQAPGKQRELVARISASGATREYGDSVKGRFTISRDDAKNTMYLQMNNLKPEDTAVYRCHKIEWEDLSRKDYWGQGTQVTVS
B10: B2A1(G4S)4 (bispecific antibody)
chain: QVQLVESGGGLVQAGGSLRLSCAVFGSTFSNNVADWYRQAPGKQRELVARISASGATREYGDSVKGRFTISRDDAKNTMYLQMNNLKPEDTAVYRCHKIEWEDLSRKDYWGQGTQVTVSGGGGSGGGGSGGGGSGGGGSEVQLLESGGGLVQPGGSLRLSCAASGFTFGNYDMAWVRQAPGKRPEWVSSIDTGGDITHYADSVKGRFTISRDNAKNTLYLQMNSLRPEDTAVYWCATDEEYALGPNEFDYYGQGTLVTVS
B11: sdAb B2 (VHH)
VHH: QVQLVESGGGLVQAGGSLRLSCAVFGSTFSNNVADWYRQAPGKQRELVARISASGATREYGDSVKGRFTISRDDAKNTMYLQMNNLKPEDTAVYRCHKIEWEDLSRKDYWGQGTQVTVS
B12: sdAb F6 (VHH)
VHH: DVQLQESGGGLVQAGGSLRLSCAASGLTFGSYDMGWYRQAPGKQRELVGRIRNDGITYYADSVKGRFTMSRDNAKNTVYLQMNSLKPEDTAVYYCAADGTGLGHYDYWGQGTQVTVS
B13: sdAb B1 (VHH)
VHH: QVQLQESGGGLVQTGGSLRLSCAVHGRTFSNTGMGWFRQAPGNERQFVAIISPSGTSTYYADSVKGRFTISRDPAKNTVYLQMNSLKMDDTAVYYCAASYGSNWSTLRHQRRNEYDAWGQGTQVAVS
B14: sdAb D2 (VHH)
VHH: DVQLQESGGGLVEAGGSLRLSCVASGRTFSGWSMGWFRQAPGKEREFVAAISWVGSWIGGTVYSNSVKGRFTISRDNARTTVYLQMNSLKPEDTAVYFCAAANSETPRIFASEYDYWGQGTQVTVS
B15: NIgG4B1A1(RS) (Fc fusion)
chain 1: QVQLQESGGGLVQTGGSLRLSCAVHGRTFSNTGMGWFRQAPGNERQFVAIISPSGTSTYYADSVKGRFTISRDPAKNTVYLQMNSLKMDDTAVYYCAASYGSNWSTLRHQRRNEYDAWGQGTQVAVSRSGPPCPPCPAPEFLGGPSVFLFPPKPKDTLMISRTPEVTCVVVDVSQEDPEVQFNWYVDGVEVHNAKTKPREEQFNSTYRVVSVLTVLHQDWLNGKEYKCKVSNKGLPSSIEKTISKAKGQPREPQVYTLPPCQEEMTKNQVSLWCLVKGFYPSDIAVEWESNGQPENNYKTTPPVLDSDGSFFLYSRLTVDKSRWQEGNVFSCSVMHEALHNHYTQKSLSLSLGK
chain 2: EVQLLESGGGLVQPGGSLRLSCAASGFTFGNYDMAWVRQAPGKRPEWVSSIDTGGDITHYADSVKGRFTISRDNAKNTLYLQMNSLRPEDTAVYWCATDEEYALGPNEFDYYGQGTLVTVSSRSGPPCPPCPAPEFLGGPSVFLFPPKPKDTLMISRTPEVTCVVVDVSQEDPEVQFNWYVDGVEVHNAKTKPREEQFNSTYRVVSVLTVLHQDWLNGKEYKCKVSNKGLPSSIEKTISKAKGQPREPQVCTLPPSQEEMTKNQVSLSCAVKGFYPSDIAVEWESNGQPENNYKTTPPVLDSDGSFFLVSRLTVDKSRWQEGNVFSCSVMHEALHNHYTQKSLSLSLGK
B16: A1B1(G4S)4 (bispecific antibody)
chain: EVQLLESGGGLVQPGGSLRLSCAASGFTFGNYDMAWVRQAPGKRPEWVSSIDTGGDITHYADSVKGRFTISRDNAKNTLYLQMNSLRPEDTAVYWCATDEEYALGPNEFDYYGQGTLVTVSGGGGSGGGGSGGGGSGGGGSQVQLQESGGGLVQTGGSLRLSCAVHGRTFSNTGMGWFRQAPGNERQFVAIISPSGTSTYYADSVKGRFTISRDPAKNTVYLQMNSLKMDDTAVYYCAASYGSNWSTLRHQRRNEYDAWGQGTQVAVS
B17: A1B3(G4S)4 (bispecific antibody)
chain: EVQLLESGGGLVQPGGSLRLSCAASGFTFGNYDMAWVRQAPGKRPEWVSSIDTGGDITHYADSVKGRFTISRDNAKNTLYLQMNSLRPEDTAVYWCATDEEYALGPNEFDYYGQGTLVTVSGGGGSGGGGSGGGGSGGGGSDVQLQESGGGLVQAGGSLRLSCAASGFIFRLAGMSWVRQAPGKGFEWVSGITMDGSTTNYADSVKGRFTISRDNSKNRLYLQMNSLKPEDTAVYYCARGAKGGYNDPRGQGTQVTVS
B18: sdAb F4 (VHH)
VHH: DVQLQESGGGLVQAGGSLRLSCAVSGLSFSSMGWFRQPPGKEREFVAAISLYSGSTYYADSVKGRFTISSDNAKSTVYLQMNSLKPEDAAVYFCAADRQRTWSTFYASRQATYNYWGQGTQVTVTS
B19: sdAb B3 (VHH)
VHH: DVQLQESGGGLVQAGGSLRLSCAASGFIFRLAGMSWVRQAPGKGFEWVSGITMDGSTTNYADSVKGRFTISRDNSKNRLYLQMNSLKPEDTAVYYCARGAKGGYNDPRGQGTQVTVS

For this assay, the target named is mixture of three Der p 2 specific recombinant human IgE clones H10, H12, P4E (human) (UniProt P01854). Kind of assay: RBL-SX38 IgE displacement, FACS.
mixture of three Der p 2 specific recombinant human IgE clones H10, H12, P4E (human), sequence (P01854 other isoform, or with tags, fused parts or gaps): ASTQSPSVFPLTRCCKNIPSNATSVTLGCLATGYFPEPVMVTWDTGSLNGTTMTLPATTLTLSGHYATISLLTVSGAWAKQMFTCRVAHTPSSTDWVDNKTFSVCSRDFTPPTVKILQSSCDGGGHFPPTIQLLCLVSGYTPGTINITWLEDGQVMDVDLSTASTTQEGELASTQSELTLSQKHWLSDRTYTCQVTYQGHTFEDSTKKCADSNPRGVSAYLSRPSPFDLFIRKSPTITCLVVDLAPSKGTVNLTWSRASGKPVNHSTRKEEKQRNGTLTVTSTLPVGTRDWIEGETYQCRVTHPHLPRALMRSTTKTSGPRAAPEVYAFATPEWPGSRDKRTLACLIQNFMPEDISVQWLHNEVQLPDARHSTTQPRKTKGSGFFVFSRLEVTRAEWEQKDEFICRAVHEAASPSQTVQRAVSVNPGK
On to B1, for which the Max effect/effect 1 µM came out at 12%. For the molecule B2, the Max effect/effect 1 µM came to 0%. For B3, the Max effect/effect 1 µM worked out at 5.6%. B4: the EC50 was 1.4 nM and the Max effect/effect 1 µM amounted to 100%. On to B5, for which the EC50 turned out to be 78.7 nM and the Max effect/effect 1 µM is 83%.

Take B6: the EC50 is 402 nM and the Max effect/effect 1 µM amounted to 45%. B7: the EC50 turned out to be 4.3 nM and the Max effect/effect 1 µM came out at 98%.

B8: the EC50 came out at 2 nM and the Max effect/effect 1 µM worked out at 100%. As to B9, the EC50 worked out at 0.8 nM and the Max effect/effect 1 µM was 100%. As to B10, the EC50 came to 5.8 nM and the Max effect/effect 1 µM was 92%. On to B11, for which the Max effect/effect 1 µM was determined as 23%. On the same count and under the same terms, with B12 the figure was 26%; with B13, 54%; with B14, 22%. With B15, the 50% effective concentration (EC50) is 3 nM and the Max effect/effect 1 µM was 99%. As to B16, the EC50 came to 1.4 nM and the Max effect/effect 1 µM worked out at 100%. As for B17, the EC50 amounted to 0.4 nM and the Max effect/effect 1 µM is 99%. Take B18: the Max effect/effect 1 µM worked out at 17%.

Take B19: the Max effect/effect 1 µM came to 7%.

The term EC50 denotes the concentration at which the effect is half-maximal.
